{"source": "paper PMC4347215", "target": "recombinant CA/09 NA, thrombin-cleaved (His-tag depleted) (influenza A virus A/California/07/2009 (H1N1)pdm09) (UniProt C3W5S3)", "experiment": "crystal structure", "data": [{"substance": "recombinant CA/09 NA, thrombin-cleaved (His-tag depleted) (from UniProt C3W5S3 82-467) (enzyme)", "values": [{"measurement": "stoichiometry N", "value": 4}]}]}
